Data: a protein production outcome set (Wang et al. 2014)

Experiment: label from the status in PepcDB records

Sequence	protein production
MIAVISMSGHVWSQQVPLWSIIIRTIHLIGLTLWLGSLVYLICYAIKVKINQLTSVRRMLLKVNIIAVFMLVFTGILMAIDETNTLTLWNNVSAWSIYLVIKIAGIITMMLLGFYQTMRALRQRQQVHRFALMTELLIGMILIFAGIMMSK	failed
MIDDMAVPLTFTDAAANKVKSLISEEENTDLKLRVYITGGGCSGFQYGFTFDEKVNDGDLTIEKSGVQLVIDPMSLQYLIGGTVDYTEGLEGSRFTVNNPNATSTCGCGSSFSI	not failed
MIDEPTGLYNRLRLQEDVSLRLQRDGALTVIAADLLPLALLNTIIRTLGYPFSNDLMLEARDRIRAELPDFTLYKISPTRFGLLLPRQQQEETESVCLRLLRAFESPVVCRGIPIKANVGLGVLPLADDTLDGDQDWLRLVVSAADDARDRGVGWARYNPPLDQAQQRLEHHHHHH	not failed
MIDGQIRLGHSMPWGMVGGGQGSQIGYIHRSAALRDGSFQLVAGAFDLDPERGRQFGQRLGVSAQRCYPDYRAMFEAEARRPDGIRAVSIATPNNTHFDICRAALHAGLHVVCEKPLCFTTAEAEALQRLAGEQRKIVGVTYGYAGHQLIEHAREMIVRGDLGEIRIVQMQFSHGFHSEGVEAANPAARWRMDPTFAGPSYVLGDIGTHPLYLSEVMLPGLKIARLLCSRQSFVKTRAPLEDNAFTIMEYQGGAIGYAWSCAVNAGSMHGQKIRVIGSKASLEWWDEHPNQLRYEVQGQPAQVLDRGMGYLHPAALHDDRIGAGHPEGLFEAWSNLYYRFALAMDATDRDDAAALRGIRYPDIHAGVEGVRWVENCVRSADAGGVWVDYR	failed
MIDVIQSLGIDLHFRQEIEQTLHMIYKEGLQFNGDLHEIALRFRLLRQEGHYVQEIIFKNILDKKGGFKDVVKNDVKGLTELFEASELRVEGEETLDGAREFTYSRLNELCSGRESHQKQEIMKSLAQPRHKTVRGLTSKRFTSMIKIAGQEDPEWLQSLLRVAEIDSIRLKSLTQGEMSQTFKWWTELGLEKDVEKARSQPLKWHTWSMKILQDPTLTEQRLDLTKPISLVYVIDDIFDVYGELEELTIFTRVVERWDHKGLKTLPKYMRVCFEALDMITTEISMKIYKSHGWNPTYALRQSWASLCKAFLVEAKWFNSGYLPTTEEYMKNGVVSSGVHLVMLHAYILLGEELTKEKVELIESNPGIVSSAATILRLWDDLGSAKDENQDGTDGSYVECYLNEYKGSTVDEARTHVAQKISRAWKRLNRECLNPCPFSRSFSKACLNIARTVPLMYSYDDDQRLPDEYLKSLM	failed
MIEEYLLRALLASLMVSTLLGLLSPLINVKGVAFLTHATFHALLFGAVLGMILGLIMGDLSLIFWISLLIAIIVVIGIAEMEIRGYSSDTAVGTMAGIIAGLTVLGFGILYKVMASRPYFALSESIVSYLTGEIFLITFDDLTLLVIGGFLVFTIMVIFYRDFLYLSFDPEGLESHGGNVRLYLMLLYFLVGAVGGLIVKTVGLITLQVLAVLPGAIALTISRGIREFVGISLGLTLAIQVSSTFLGYYFNIPPSGLATIFLGTIYGVLALRRKII	failed
MIEFDNLTYLHGKPQGTGLLKANPEDFVVVEDLGFEPDGEGEHILVRILKNGCNTRFVADALAKFLKIHAREVSFAGQKDKHAVTEQWLCARVPGKEMPDLSAFQLEGCQVLEYARHKRKLRLGALKGNAFTLVLREVSNRDDVEQRLIDICVKGVPNYFGAQRFGIGGSNLQGAQRWAQTNTPVRDRNKRSFWLSAARSALFNQIVAERLKKADVNQVVDGDALQLAGRGSWFVATTEELAELQRRVNDKELMITAALPGSGEWGTQREALAFEQAAVAAETELQALLVREKVEAARRAMLLYPQQLSWNWWDDVTVEIRFWLPAGSFATSVVRELINTTGDYAHIAE	not failed
